Results on one substance are retold here after patent US20030049729A1.

The target in the assay is plasminogen. The assay is described as follows: cell-based or functional assay.

With “Bacteriophages which harbored K2S on gpIII (K2S-phi; printed with a garbled symbol as K2S-?) (from UniProt P00750 209-562)”, the fibrinogen-dependent enzymatic activity is less than 0.25 IU/ml.
